In article PMC3522052, “Association of HLA-DR1 with the allergic response to the major mugwort pollen allergen: molecular background” (BMC Immunology, 2012):

Columns and labels:
[1] = target: HLA-DRB1*01:01 molecules (human (endogenous in homozygous EBV cells)); assay: ELISA
[2] = target: HLA-DRB1*04:01 molecules (human (endogenous in homozygous EBV cells)); assay: ELISA
HLA-DRB1*01:01 = target: T1, HLA-DRB1*01:01 (Homo sapiens, UniProt P01903+P01911, A100R/D57E/F55L/F60I/F76Y/I96L/L162R/M171V/P40L/Q125E/R42F/V115G/Y59C); assay: Peptide/MHC-binding assay, competitive ELISA against biotinylated HA306-318; settings: for binding to DR1 molecules, in words: competition with HA306-318, stated for DR1 or DR4; for ratio of IC50 of Art v 1-peptides/HA306-318, HLA-DR1: relative binding activity, competitive ELISA, pH 6.0, 24 h at 37°C, two independent experiments
T1 construct: endogenous in cells
Protocol: (§1) HLA-DRB1*01:01 and -DRB1*04:01 molecules were purified from homozygous EBV cells by affinity chromatography using mAb L243 as described before. Peptide binding to HLA-DR molecules was assessed by competitive ELISA. Dilutions were prepared in 10 mM phosphate, 150 mM NaCl, […], 10 mM citrate (pH = 6.0). […] After 24 hours of incubation at 37°C, peptide/MHC-class II complexes were added to 96 well plates coated with L243 antibody and incubated at RT for 2 hours. Bound biotinylated peptides were detected by Streptavidin-alkaline phosphatase conjugate (GE healthcare, Saclay, France) and 4-methyl-umbelliferyl phosphate (Sigma-Aldrich, St. Quentin Fallavier, France) as substrate. Emitted fluorescence was measured at 450 nm upon excitation at 365 nm by a Gemini fluorometer (Molecular probes, St Grégoire, France). […] Two independent experiments were performed to evaluate competitive binding.

HLA-DRB1*04:01 = target: T2, HLA-DRB1*04:01 (Homo sapiens, UniProt P01903+P01911, A100K/A169T/F76Y/I96L/K127E/L162R/M171V/N62H/P40V/Q125Y/R42H/S133A/S149N/S66Y/V115G/V209L/W38E); assay: as above; settings: for binding to DR4 molecules, in words: competition with HA306-318, stated for DR1 or DR4; for ratio of IC50 of Art v 1-peptides/HA306-318, HLA-DR4: relative binding activity, competitive ELISA, pH 6.0, 24 h at 37°C, two independent experiments
T2 construct: endogenous in cells
Protocol: as §1

[3] = tested on: Art v 1_25-36-specific TCL and TCC with HLA-DR1-expressing APC; assay type: cell-based, human
Protocol: (§2) TCL or TCC (5 × 10^4 cells) were stimulated for 3 days with irradiated (60 Gy) APC and peptides at an optimum concentration of 3 μM, if not indicated otherwise. Proliferation was assessed by ^3H-thymidine uptake within the last 16 hours of incubation.

[4] = tested on: Art v 1_25-36-specific TCL and TCC with HLA-DR4-expressing APC; assay type: cell-based, human
Protocol: as §2

[5] = text statement for both HLA molecules

Row | other [1] | other [2] | Molecule | ratio of IC50 of Art v 1-peptides/HA306-318, HLA-DR1 (HLA-DRB1*01:01) | ratio of IC50 of Art v 1-peptides/HA306-318, HLA-DR4 (HLA-DRB1*04:01) | other results
1 | 63 | 149 | KCIEWEKGQHGA [Art v 1_(25-36) Gly-32] | – | – | –
2 | 2600 | – | KCAEWEKAQHGA [Art v 1_(25-36) Ala-27] | – | – | –
3 | 17 | 17 | KCIEWEAAQHGA [Art v 1_(25-36) Ala-31] | – | – | –
4 | 6 | 11 | KCIAWEKAQHGA [Art v 1_(25-36) Ala-28] | – | – | –
5 | 8 | 17 | KCIEWEKAQAGA [Art v 1_(25-36) Ala-34] | – | – | –
6 | 5 | 5 | KCIEWEKAQHAA [Art v 1_(25-36) Ala-35] | – | – | –
7 | 6 | 28 | KCIEWAKAQHGA [Art v 1_(25-36) Ala-30] | – | – | –

Continued, molecule first:

Row | Molecule | other [1] | other [2] | ratio of IC50 of Art v 1-peptides/HA306-318, HLA-DR1 (HLA-DRB1*01:01) | ratio of IC50 of Art v 1-peptides/HA306-318, HLA-DR4 (HLA-DRB1*04:01) | other results
8 | Art v 1_(22-33) (peptide) | 2020 | 756 | – | – | –
9 | Art v 1_(25-36) (peptide) | 14 | 15 | – | – | –
10 | Art v 1_(25-36) Ala-26 (peptide) | 16 | 3 | – | – | –
11 | CDKKCIEWEKAQ [Art v 1_22-33] | – | – | 2016 | 756 | binding to DR1 molecules, in words (HLA-DRB1*01:01): weak; binding to DR4 molecules, in words (HLA-DRB1*04:01): weak
12 | KAIEWEKAGHGA [Ala-26, mono-substituted peptide of Art v 1_25-36] | – | – | 16 | 3 | –
13 | KCAEWEKAQHGA [Ala-27, mono-substituted peptide of Art v 1_25-36] | – | – | 2596 | >926 | –
14 | KCIAWEKAQHGA [Ala-28, mono-substituted peptide of Art v 1_25-36] | – | – | 6 | 11 | –
15 | KCIEWAKAQHGA [Ala-30, mono-substituted peptide of Art v 1_25-36] | – | – | 6 | 28 | –
16 | KCIEWEAAQHGA [Ala-31, mono-substituted peptide of Art v 1_25-36] | – | – | 17 | 17 | –
17 | KCIEWEKAQAGA [Ala-34, mono-substituted peptide of Art v 1_25-36] | – | – | 8 | 17 | –
18 | KCIEWEKAQHAA [Ala-35, mono-substituted peptide of Art v 1_25-36] | – | – | 5 | 5 | –
19 | KCIEWEKAQHGA [Art v 1_25-36] | – | – | 14 | 15 | binding less than HA306-318, HLA-DR1 (HLA-DRB1*01:01; [5]): 15 fold; binding less than HA306-318, HLA-DR4 (HLA-DRB1*04:01; [5]): 15 fold; median proliferation of TCC, DR1 [3]: 36,640 dpm; median proliferation of TCL, DR1 [3]: 31,630 dpm; TCC that did not respond to presentation by DR4 [4]: 18%; TCC that recognized the peptide presented by DR4 [4]: 82%; median proliferation of TCC, DR4 [4]: 24,125 dpm; median proliferation of TCL, DR4 [4]: 25,985 dpm
20 | KCIEWEKGQHGA [Gly-32, mono-substituted peptide of Art v 1_25-36] | – | – | 63 | 149 | –
21 | NKKCDKKCIEWE [Art v 1_19–30] | – | – | >55032 | >926 | binding to DR1 molecules, in words (HLA-DRB1*01:01): negligible; binding to DR4 molecules, in words (HLA-DRB1*04:01): negligible
